Laboratory results reported in publication PMC8257661.

B1: Junin virus (JUNV) Z protein (natural protein)
chain: MGNCNGASKSNQPDSSRVTQPAAEFRRVAHSSLYGRYNCKCCWFADTNLITCNDHYLCLRCHQVMLRNSDLCNICWKPLPTTITVPVEPTAPPP

molecular target: Junin virus (JUNV) L protein (Junin virus (JUNV)); experiment: MST; […] (20–[…]); […]; 50 mM HEPES pH 7.8, 500 mM NaCl, 1 mM TCEP; […]

Z (AA 48–78) peptide of JUNV Z protein and Z (AA 18–47) peptide of JUNV Z protein are within 1.5-fold of each other in Kd: 1150 nM for the first, 863 nM for the second.

In the case of B1, the Kd is reported as 393 nM.
